Measurements published in publication PMC4114980.

Biological target: purified bovine brain tubulin (bovine) (UniProt Q6B856)
Assay: co-sedimentation; constant Chro-CTD (10 µg) with 0.125–2.5 µM taxol-stabilized microtubules from bovine brain tubulin; bound fraction in pellets by densitometry of immunoblots; Kd from a Lineweaver-Burk plot; three independent experiments

Kd: 230 nM
B1: Chro-CTD (329–926), COOH-terminal domain of Chromator, GST-fusion protein (domain or fragment)
chain: AMDAFKQWVNETVAGDGSSSPSSANEDESSTEQEWPPSSGAIKRKLNNTDSSLEGSGLNDSMDLEDLEEDLPSHTVKRLKNGGSSVQLNKPRIQSTEKQQTKINGNSTVVSPLTEQKMGEIIYTEDSTSSGMFRKPEMPNTINLKKEKPECPVRYLSRSEVGSSTRGVFRVENSEAPAPVSPAPVPQKVIAAPPAAGIAKRLPMARPAHSGANSPITVGQRQHALRTPGHGPVTAALHRRPGVGGASHVRQNLQQAPGRAHPGGRVLARAGVGTPQHRQQVQTPQGAKAVTPEQKILQLSKSGDLKVTRKVVTREELLAQRSAQARQRQALSQQQSSQQQKATPARQRIVSKSTIQPTPLQMELEEEIHQHQAQLCPITGKLIGQEETQLQMEQEQQQEQQREQLEAAAQALLGSDQQVLTNEDGSALLVRGEDGTVYQVAGKNAEGQTILVTQGPDGEQQFAYVAAAEGEDQDVLSLDHAVAEAVQAGEQVESHGVGAATADGEQILVSMTEEELAQHQVLQQAEASAAGTGTPPTAQIHITTSDSDGTESQIPAEVVQADLPSPGGTRRVVLLLQDGTFMMTEMHEDQFKTLNIPT
